For eight molecules, Kd, koff and kon results are on record in patent US20200397865A1 (ACCELERON PHARMA, published 2020).

B1: BMP9 (ligand, UniProt Q9UK05 320-429, looked up)
chain: SAGAGSHCQKTSLRVNFEDIGWDSWIIAPKEYEAYECKGGCFFPLADDVTPTKHAIVQTLVHLKFPTKVGKACCVPTKLSPISVLYKDDMGVPTLKYHYEGMSVAECGCR
notes: also called GDF2
B2: BMP6 (ligand, UniProt P22004 382-513, looked up)
chain: QQSRNRSTQSQDVARVSSASDYNSSELKTACRKHELYVSFQDLGWQDWIIAPKGYAANYCDGECSFPLNAHMNATNHAIVQTLVHLMNPEYVPKPCCAPTKLNAISVLYFDDNSNVILKKYRNMVVRACGCH
B3: ActRIIB-Fc homodimer (Fc fusion, UniProt Q13705 20-134, looked up)
chain: GRGEAETRECIYYNANWELERTNQSGLERCEGEQDKRLHCYASWRNSSGTIELVKKGCWLDDFNCYDRQECVATEENPQVYFCCCEGNFCNERFTHLPEAGGPEVTYEPPPTAPT
notes: also called ActRIIB-Fc:ActRIIB-Fc homodimer; ActRIIB homodimer; not shown: linker and Fc
B4: GDF11 (ligand, UniProt O95390 299-407, looked up)
chain: NLGLDCDEHSSESRCCRYPLTVDFEAFGWDWIIAPKRYKANYCSGQCEYMFMQKYPHTHLVQQANPRGSAGPCCTPTKMSPINMLYFNDKQQIIYGKIPGMVVDRCGCS
notes: also called BMP11
B5: activin B (ligand, UniProt P09529 293-407, looked up)
chain: GLECDGRTNLCCRQQFFIDFRLIGWNDWIIAPTGYYGNYCEGSCPAYLAGVPGSASSFHTAVVNQYRMRGLNPGTVNSCCIPTKLSTMSMLYFDDEYNIVKRDVPNMIVEECGCA
B6: GDF3 (ligand, UniProt Q9NR23 251-364, looked up)
chain: AAIPVPKLSCKNLCHRHQLFINFRDLGWHKWIIAPKGFMANYCHGECPFSLTISLNSSNYAFMQALMHAVDPEIPQAVCIPTKLSPISMLYQDNNDNVILRHYEDMVVDECGCG
B7: BMP10 (ligand, UniProt O95393 317-424, looked up)
chain: NAKGNYCKRTPLYIDFKEIGWDSWIIAPPGYEAYECRGVCNYPLAEHLTPTKHAIIQALVHLKNSQKASKACCVPTKLEPISILYLDKGVVTYKFKYEGMAVSECGCR
B8: activin A (ligand, UniProt P08476 311-426, looked up)
chain: GLECDGKVNICCKKQFFVSFKDIGWNDWIIAPSGYHANYCEGECPSHIAGTSGSSLSFHSTVINHYRMRGHSPFANLKSCCVPTKLRPMSMLYYDDGQNIIKKDIQNMIVEECGCS
notes: also called ActA

Common to all, as to assay: SPR (Biacore), Fc protein captured by anti-Fc antibody, ligand injected
(In general: In SPR one partner is held on a chip, and binding of the other changes the refractive index at the surface.)

The target in experiment [1] is T1, ALK4-Fc:ActRIIB-Fc heterodimer (human, UniProt P36896 24-126; Q13705 20-134).
T1 construct: also called ALK4-Fc:ActRIIB-Fc heterodimeric complex; ALK4:ActRIIB heterodimer; not shown: linker and engineered Fc
T1 sequence 1: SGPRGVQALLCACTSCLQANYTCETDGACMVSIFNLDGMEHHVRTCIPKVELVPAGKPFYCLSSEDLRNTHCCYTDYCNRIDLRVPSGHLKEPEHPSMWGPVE
T1 sequence 2: B3 chain
The method, then:
(§1) A Biacore™-based binding assay was used to compare ligand binding selectivity of the ALK4-Fc:ActRIIB-Fc heterodimeric complex described above with that of ActRIIB-Fc and ALK4-Fc homodimer complexes. The ALK4-Fc:ActRIIB-Fc heterodimer, ActRIIB-Fc homodimer, and ALK4-Fc homodimer were independently captured onto the system using an anti-Fc antibody. Ligands were injected and allowed to flow over the captured receptor protein. Results are summarized in the table below, in which ligand off-rates (kd) most indicative of effective ligand traps are denoted in bold font.

The target in the experiment “ActRIIB-Fc homodimer” is B3. The method, then:
as §1

For the experiment “activin A”, the target named is B8. The method, then: as §1
For the experiment “BMP6”, the target named is B2. On the procedure: as §1
The target of the experiment “activin B” is B5. The method, then:
as §1

As a reminder, the Kd is a measure of binding affinity in units of concentration. Read a low Kd as tighter binding. Usually koff stands for the rate constant with which the complex falls apart. Read a high koff as a short-lived complex. By kon is commonly meant the rate constant with which the complex forms. On to B1, for which the Kd in experiment [1] worked out at 3.4 nM. Also, in the experiment with ActRIIB-Fc homodimer, the Kd was 0.077 nM, the koff was found to be 0.0011 s⁻¹ and the kon came out at 1.4e+07 M⁻¹ s⁻¹.

In experiment [1], B2 had a Kd of 2.7 nM, a koff of 0.0055 s⁻¹ and an on-rate constant (kon) of 2e+06 M⁻¹ s⁻¹.

Consider B3, for which the Kd came out at 0.019 nM with activin A, 0.19 nM with BMP6 and 0.02 nM with activin B. For the same molecule, the koff in the experiment with activin A was 0.00023 s⁻¹; with BMP6, 0.0068 s⁻¹; with activin B, 0.0001 s⁻¹. In addition, the figures for the kon with activin A, in the experiment with BMP6 and with activin B were 1.2e+07 M⁻¹ s⁻¹, 3.2e+07 M⁻¹ s⁻¹ and 5.1e+06 M⁻¹ s⁻¹, respectively.

In experiment [1], B4 came in with a Kd of 0.003 nM, a koff of 0.00011 s⁻¹ and an on-rate constant (kon) of 3.8e+07 M⁻¹ s⁻¹. In the experiment with ActRIIB-Fc homodimer, this molecule gave a Kd of 0.002 nM, an off-rate constant (koff) of 0.00011 s⁻¹ and an on-rate constant (kon) of 5e+07 M⁻¹ s⁻¹.

In experiment [1], B5 gave a Kd of 0.006 nM, a koff of 4e-05 s⁻¹ and an on-rate (kon) of 7.1e+06 M⁻¹ s⁻¹.

In experiment [1], B6 came in with a Kd of 4.9 nM, a dissociation rate constant (koff) of 0.017 s⁻¹ and a kon of 3.4e+06 M⁻¹ s⁻¹. Moreover, in the experiment with ActRIIB-Fc homodimer, binding was put at a Kd of 1.5 nM, the koff came out at 0.0022 s⁻¹ and the kon came to 1.4e+06 M⁻¹ s⁻¹.

Regarding B7, in experiment [1], the dissociation constant (Kd) was found to be 0.074 nM, the koff came to 0.0041 s⁻¹ and the kon came to 5.6e+07 M⁻¹ s⁻¹. Besides, in the experiment with ActRIIB-Fc homodimer, the Kd stood at 0.011 nM, the off-rate constant (koff) stood at 0.00026 s⁻¹ and the kon was determined as 2.3e+07 M⁻¹ s⁻¹.

Consider B8, for which, in experiment [1], the dissociation constant Kd came out at 0.012 nM, the koff was 0.00015 s⁻¹ and the on-rate (kon) came to 1.3e+07 M⁻¹ s⁻¹.
